The values that follow come from the PETadex activity labels.

Substrate in this data set: BHET
The settings on record: 120 h.

B1: unnamed (protein)
chain: MHTKNYRNDARTVPKRSSLAKSLLAGGILLFSAAANADIIFQEDFNSSLGQFTASGSVTTGTYGARMAAAYGSGDAFITSAPISTVGFTNISLTWTRTTSGLDSGESGIAMFSTNGSTWTTIESVQSASGVRTVALPAGAAGQSALRLRFEVDGSLSSETYTVDTIRLEGTGSGGGCEPNCEPPPTGNPYERGPAPTTSSLEASTGPFQVATTTVSSTTADGYGSGTIYHPTGVTGPFAAIAICPGYTATQTSISQWGPRLASHGFVVITINTNSTSDQPPSRATQLMAALDQLVTFSNTSGHAIFGKVDGTRRGVMGHSMGGGGSLIAARDNPSLKAAIPMAPWYSSSTNFSAIRTPTMIVACESDSIARVSSHALPFYNSIPSTTPKAFAERNNGSHNCPINNNDWWPTLNKYGVAWMKRFLDNDTRYSPWLCGAPHEAVVDGTTYSRYLSNCPY
B1: the plate clearing result is on record as “clears the plate (z > 3 vs empty vector)”.

B2: unnamed (protein)
chain: MIKDFLLSRVVIVAGTLIFSMPTLAEITVSETTVVIPKEALPVPTLSNCITDSAITADALSDTRDNGPFTVSTKRVPRQSANGFGGGTIHYPTNASGCGLLGGIAVVPGYVSYESSIKWWGPRLASWGFVVITINTNHISDNPDSRATQLNAALDHLLLDSTVANMVDRDRLGVIGWSMGGGGALRLATDRSTVRAIIAQTPYHDTSYPTMDTPALFIACENDRIAPNKKYTNVFYNNATGPKMKVEVSNGSHFCASHGFHEILLSKPGIAWMQRYINGDTRFDQFLCSSENYNSSPRISSYNYKNCL
In the case of B2, the plate clearing entry was “not clears the plate”.

B3: unnamed (protein)
chain: MQKIRSIGRAGRARWGRAALTAVALAAALSAAQAQTVVGPDPTAAALEAARGPFAVSTTTIKAPRGFRAGTVFFPASVTTPMAAVAVVPGFTARQSSINWLGPRLASWGFVVVTIDTNSTSDQPAARATQLMAALKQVVDESKVAGSPFFGKVDGARLGVMGHSMGGGGSLIAARNNPTLKAAIPMAPWNLGRNFSGVSVPTLVMACQNDAVAPVAQHASPFFESIPATVDKAFLEVRGGSHLCPTTASVANQPLLGKYSVAWMKRFMDNDTRFSAFLCDAPHQADLAGNKISAYRENCPY
On to B3, for which the plate clearing entry was “clears the plate (z > 3 vs empty vector)”.

B4: unnamed (protein)
chain: MQYASTPTLRHVAQFAKASVLAATVLLASVAHAQFEKGPNPTVSALERAGTFATRTTTVSSLSASGFGGGTIYYPTAAGSYGVIAISPGFTARQSSISWMGTRIASHGFVVITIDTNTTSDQPDSRARQLKAALDKVVSLSTGRTNVLYGKVDASRLAVAGHSMGGGGSLAAARDYPTLKAAVPLAPWHTTKSFSSVRVPTLIISGENDSVAGNSSHSIPFYNSLPSSTPKGYLELNAEDHFFPQDSGEYGLVGKYMISWFKRFVDSDTRYSPFLCGAEHQAQVRVTSRVSDSRTNCPY
For B4, the plate clearing result was “not clears the plate”.

B5: unnamed (protein)
chain: MAKFTGAAQFLKASMAIGAIVLSAAASAQTNPYQRGPAPTDSSLAADRGPLAYSSFTVSRPSGYRAGTVYYPTNAGGTVGAIAVVPGFTAYQSDINWWGPRLASWGFVVITIDTNSTLDQPSSRSRQQLAALDQVATLSRTSGSPIYNKVDTSRMGVMGWSMGGGGSLISTQNRPSLKASIPFAPWNGTSSFSSVTTPTFIIACQSDLIAPVASHANDFYNSLSRPPKMFLEIRGGSHYCANSSNGNKDVLGAKGVAWMKRY
On to B5, for which the plate clearing entry is “not clears the plate”.

B6: unnamed (protein)
chain: MKTTTIIKSTLCAFTLTFSLSAFSGGGGGGGGGNNGNLPPPDTCNTNCGYEIGPNPTLGFLQASQGPLPVSSTNVSSSVNGFGGGTIYYPSNISDEMAAISIAPGFTNTQSAVAWWGPILASHGFVVITINTNSRFDQPESRSRQLDSALSYLISEGDRGSSPISGLVDENRLATMGFSMGGGGSLRSASRNRLSAAVPLAPWSTGSNNFDDIGVPTLIMACENDTTARVNTHASPFYNAIPGSTDKAFMEINNGPHNCANGESSTNRSLLSTYGVSWMKRFLDKDRRYNQFLCGPNHEANSRISEYRDTCSYG
B6: the plate clearing entry is “not clears the plate”.

B7: unnamed (protein)
chain: MISNRRAPARRAGAALTALALAVVLAACDIRGPAPTEQILEAPSGPFAVGSVAVPSSAGFGGGTIYYPSEAAGPFGIIAVTPGFLGNQTSIGTWGPRLASHGFVTITINTTGGFILPDQRSAEQRQALTYVVNQGNRSSSPIFGKVDGDRKGVAGHSMGGGGTLVSAREDPTIRAAVPFAPWYTSTNFSNVTVPTLIVACQSDGVAPVASHASPFYNSIPATTDKSYISVAGADHFCANSPTGGANDVGKYVVAFFKRFVDGDTRYDPWVCG
Regarding B7, the plate clearing result is “not clears the plate”.

B8: unnamed (protein)
chain: MPPHAARPGPAQNRRGRAMAVITPRRERSSLLSRALRFTAAAATALVTAVSLAAPAHAANPYERGPNPTDALLEARSGPFSVSEERASRFGADGFGGGTIYYPRENNTYGAVAISPGYTGTQASVAWLGERIASHGFVVITIDTNTTLDQPDSRARQLNAALDYMINDASSAVRSRIDSSRLAVMGHSMGGGGSLRLASQRPDLKAAIPLTPWHLNKNWSSVRVPTLIIGADLDTIAPVLTHARPFYNSLPTSISKAYLELDGATHFAPNIPNKIIGKYSVAWLKRFVDNDTRYTQFLCPGPRDGLFGEVEEYRSTCPF
In the case of B8, the plate clearing entry was “not clears the plate”.

B9: unnamed (protein)
chain: MRHRSISALVLGTAVVAGAAQAQINPFAKGPDPTPASIQATGPFAISMQTVPRAAGFGGATVYSPNDPGSYALVVLCPGFIETQSAISAVGQRLATHGFVVATIDTVTTIDFPASRGTQLIAALQTITALNTGPVAGKIDTTRLVVGGHSMGGGGTLEASRTNPAIKAGLPIAPFHFVKQFNTPVPQLITGGQVDAIAPVGQHAIPFFEMLPDATPKIYAELTGGNHFFVTQNPPNQPINKLLLAWTKRFADNDLRYEQFITATAVQAEVANGALSQTRREATPF
B9: the plate clearing entry is “not clears the plate”.

B10: unnamed (protein)
chain: MPGYQGTQQNLQWLAPRLASWGFTVINLGTNTLTDDPDSRATQIRNAGTQLLSFSATAGNPIANKVRSVTASTGLGVSGHSMGGGGTMVVLRDDSRFTAGAPLAPYHPSGAFSGVTKPTFFLVCASDVAAPGNTYAKPWYNSMASAEKLYMSVPGDHLCPMTGYGDKAKQGKYLVSWFSRWLKGDTSYSQFLCTDSIRNVDKNNTSIVTEWMDTCPY
In the case of B10, the plate clearing result was “not clears the plate”.

B11: unnamed (protein)
chain: MTTKRHRTATTPTRRARLALLAAATLLSFAAQAQVVIFQENFNSGLGQFTASGTVSTSSGGAVMQGCYNCTDGAITSKPISTVGFTNLKLSYDRTTTGLDSGEYGVAAYSVNGGAWTVIESIQSSSGRVTIALPAAAANQASLRLRFRVNASLSAETFTVDNVVLEGTPGGAPGPGGNPYQKGPDPTAAALEASAGPFTVATTTVSASSASGYGGGTIYYPTNVAGPFAAIAVVPGYTATQSSISWWGPRLASHGFVVITIDTNSTSDLPASRATQLMAALNQLKTFSATSGHAIYGKVDPNRLGVMGWSYGGGGTLIAARDNPTLKAAIPLAPKTSSGTDFSGITVPTLIVGCESDTTAPVSSWAIPFYNSIPASTKKAYLEINNGDHFCVTTSNSSADKAILGKYGVAWMKRFLDNDTRYSPFLCGAPHQADLSGNAAISEYRDNCPY
Take B11: the plate clearing result is “not clears the plate”.

B12: unnamed (protein)
chain: MERHNSRRRWGMGLGLLLLAASAHAQYQKGPDPTSASLNASSGPFSVATSSVSSLAAVGFGSGTIYYPTTAGSYAVLAICPGFTATESSIAWLGRRIATHGFVVITINTDSTLDQPPSRATQLMAALRHVTESSSATVRSRVDASRRGVAGHSMGGGGTLYAARDNPSLKAAVPLTAWSTTKTFSSMQVPTLVVGAENDSIASVNSHSIPFYNGLPGSLDKAYAELNGASHFAPNTTNTPIGRYSVAWVKRFMDEDTRYSPFLCGAPHQSYA
For the protein B12, the plate clearing entry is recorded as “not clears the plate”.

B13: unnamed (protein)
chain: MTPTTHDDIDSHPSRTPAMRRAWPAFIAGTLLSLGAQAQVAIFKEDFQGGIGQFTSAGAASVSNGRVVMKGCLTCADGSVTSKEISTVGFDALRLSYDRTIVGLDAGEYGEVAYAVDGGEWTMLWGRLDNRSGRGTIDLPAAAANQKSLRLRYRIHASDSAETFTLDNVLLEGTPRSVTHPNPYAKGPDPTASALEAKAGPFTYAATVVPSGKASGYGGGTLYHPDKEVGPFAAIVIVPGYTATQESVKWWGPLLASHGFVVMVIDTLDNRDLPGSRATQLMAAVSQVKGFNTTQGHAIQGKVDPARVGIMGWSFGGGGTLLAAQAHPELKAAIPMAPKTWGETLKTADIKVPTLIIGCQADTTAPVKDWAIPFHEGIPGSVRKAYLEIAQGGHGCVSAQFNKKAADLAMMGKYGVSWMKRFLDEDTRYSPYLCGAPHQADVNGKTVVSAYRENCPY
As to B13, the plate clearing result is recorded as “not clears the plate”.

B14: unnamed (protein)
chain: MERGNHRAKWAIGFGLLLLGAAAHSQTNPYQKGPDPTSATLNATSGSFAVATSTVSSLAANGFGGGTIYYPTQTGTYAVLAISPGFTATQSSIAWLGRRISTHGFVVITIDTNSTLDQPPSRATQLMAALRHVTDLSSSTVRSRVDASRRGVAGHSMGGGGTLIAARDNPSLKAAVPLTAWSTTKIFSTVQVPTLVVGAESDSVAPVSSHSIPFYNSLSNSLDKAYAELNNASHFAPNSTNTPIGRYSVAWVKRFMDNDTRYTPFLCGTPHTSYATSTVFSDYRSTCPY
As to B14, the plate clearing entry was “not clears the plate”.
